The values that follow are results of earlier work, collected in paper PMC4105053.

By Kd is commonly meant the concentration at which binding is half-saturated.

The target of data set [1] is MMOB (Methylococcus capsulatus) (UniProt P18797).
In data set [2] the target is MMOR Fd (Methylococcus capsulatus) (UniProt P22868).
MMOR Fd (Methylococcus capsulatus), sequence (P22868 1-98): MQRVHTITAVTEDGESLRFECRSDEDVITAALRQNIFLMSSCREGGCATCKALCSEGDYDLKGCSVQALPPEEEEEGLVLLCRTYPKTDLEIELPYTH

MMOH, sequence (P22869 whole entry): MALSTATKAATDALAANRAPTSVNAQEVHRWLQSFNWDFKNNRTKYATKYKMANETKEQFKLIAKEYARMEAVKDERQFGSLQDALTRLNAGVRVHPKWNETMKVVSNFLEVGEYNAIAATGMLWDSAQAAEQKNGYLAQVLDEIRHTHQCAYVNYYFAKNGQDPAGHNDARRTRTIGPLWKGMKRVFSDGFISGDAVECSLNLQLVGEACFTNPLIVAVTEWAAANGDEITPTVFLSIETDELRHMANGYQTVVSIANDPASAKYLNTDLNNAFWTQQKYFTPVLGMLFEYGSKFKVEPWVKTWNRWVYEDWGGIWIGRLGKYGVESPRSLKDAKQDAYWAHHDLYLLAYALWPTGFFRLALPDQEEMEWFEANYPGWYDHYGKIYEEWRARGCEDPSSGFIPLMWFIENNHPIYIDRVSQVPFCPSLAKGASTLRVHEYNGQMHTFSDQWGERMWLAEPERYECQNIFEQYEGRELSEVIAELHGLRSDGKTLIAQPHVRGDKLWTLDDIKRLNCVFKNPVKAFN
MMOH, sequence (P18798 2-389, further chain): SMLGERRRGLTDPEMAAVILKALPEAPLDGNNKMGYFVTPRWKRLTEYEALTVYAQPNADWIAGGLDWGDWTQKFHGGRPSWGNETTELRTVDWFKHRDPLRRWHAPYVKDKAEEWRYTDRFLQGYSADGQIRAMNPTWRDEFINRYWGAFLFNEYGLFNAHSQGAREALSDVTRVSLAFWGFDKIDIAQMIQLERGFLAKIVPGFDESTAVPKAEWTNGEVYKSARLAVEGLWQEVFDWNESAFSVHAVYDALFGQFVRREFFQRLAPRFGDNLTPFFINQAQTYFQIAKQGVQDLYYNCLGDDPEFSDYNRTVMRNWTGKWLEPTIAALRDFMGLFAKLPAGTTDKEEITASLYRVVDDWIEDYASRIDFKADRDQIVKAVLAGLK
MMOH, sequence (P11987 2-170, further chain): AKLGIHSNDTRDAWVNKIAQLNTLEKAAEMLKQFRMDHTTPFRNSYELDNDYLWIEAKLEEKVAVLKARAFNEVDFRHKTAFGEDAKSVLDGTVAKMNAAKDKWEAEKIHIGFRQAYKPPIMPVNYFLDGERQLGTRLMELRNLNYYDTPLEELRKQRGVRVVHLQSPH
MMOB (Methylococcus capsulatus), sequence (P18797 whole entry): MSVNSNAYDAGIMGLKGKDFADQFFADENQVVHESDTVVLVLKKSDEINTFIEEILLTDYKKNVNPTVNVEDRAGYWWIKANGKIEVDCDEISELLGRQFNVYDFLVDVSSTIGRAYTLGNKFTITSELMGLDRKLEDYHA

Take MMOH (from UniProt P22869): the results for the Kd in data set [1] and in data set [2] were 550 nM and 900 nM, respectively.
